Several values for one entry are separate records, joined by “and”; a condition that tells them apart may be missing. Equal entries are not always repeated.
Key:
[1] = biological target: wild-type LFA-1 (αLβ2) on 293T cells (UniProt P20701); experiment: flow cytometry (FACS), LFA-1 on transfected 293T cells; the reference itself
[2] = biological target: LFA-1 disulfide mutant #5 (αL K1062C / β2 P677C) on 293T cells (UniProt P20701); experiment: flow cytometry (FACS), LFA-1 on transfected 293T cells
LFA-1 disulfide mutant #5 (αL K1062C / β2 P677C) on 293T cells, sequence (P20701 26-1170 K1087C, chain 1 of 2): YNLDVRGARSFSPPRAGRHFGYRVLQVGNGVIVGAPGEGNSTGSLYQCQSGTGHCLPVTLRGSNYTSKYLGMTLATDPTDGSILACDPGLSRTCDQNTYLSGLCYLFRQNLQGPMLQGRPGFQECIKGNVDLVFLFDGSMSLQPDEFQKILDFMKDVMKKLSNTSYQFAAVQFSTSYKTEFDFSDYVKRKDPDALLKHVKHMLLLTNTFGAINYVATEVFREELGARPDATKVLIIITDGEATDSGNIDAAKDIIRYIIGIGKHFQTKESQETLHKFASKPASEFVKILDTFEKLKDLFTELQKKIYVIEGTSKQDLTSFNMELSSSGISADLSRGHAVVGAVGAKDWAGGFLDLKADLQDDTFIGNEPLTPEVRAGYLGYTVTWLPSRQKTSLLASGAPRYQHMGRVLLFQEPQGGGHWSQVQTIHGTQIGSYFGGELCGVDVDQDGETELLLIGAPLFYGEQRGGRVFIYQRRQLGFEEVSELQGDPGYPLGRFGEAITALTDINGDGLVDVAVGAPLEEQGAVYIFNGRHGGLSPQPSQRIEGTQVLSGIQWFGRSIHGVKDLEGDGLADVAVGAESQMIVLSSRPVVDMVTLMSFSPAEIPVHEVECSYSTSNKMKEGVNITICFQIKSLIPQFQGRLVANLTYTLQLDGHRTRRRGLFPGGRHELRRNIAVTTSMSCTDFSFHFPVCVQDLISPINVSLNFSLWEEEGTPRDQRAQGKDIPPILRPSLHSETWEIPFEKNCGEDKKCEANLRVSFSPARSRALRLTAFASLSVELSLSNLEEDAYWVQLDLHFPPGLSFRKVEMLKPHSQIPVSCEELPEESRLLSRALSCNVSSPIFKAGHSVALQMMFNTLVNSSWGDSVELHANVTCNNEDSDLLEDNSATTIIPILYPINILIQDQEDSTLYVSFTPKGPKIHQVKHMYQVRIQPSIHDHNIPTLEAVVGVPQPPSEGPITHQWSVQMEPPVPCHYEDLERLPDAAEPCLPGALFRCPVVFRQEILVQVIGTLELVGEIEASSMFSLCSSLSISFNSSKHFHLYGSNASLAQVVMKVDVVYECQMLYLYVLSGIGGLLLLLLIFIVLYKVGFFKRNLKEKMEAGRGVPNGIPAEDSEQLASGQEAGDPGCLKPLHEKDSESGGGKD
LFA-1 disulfide mutant #5 (αL K1062C / β2 P677C) on 293T cells, sequence (P05107 23-769 P699C, chain 2 of 2, further chain): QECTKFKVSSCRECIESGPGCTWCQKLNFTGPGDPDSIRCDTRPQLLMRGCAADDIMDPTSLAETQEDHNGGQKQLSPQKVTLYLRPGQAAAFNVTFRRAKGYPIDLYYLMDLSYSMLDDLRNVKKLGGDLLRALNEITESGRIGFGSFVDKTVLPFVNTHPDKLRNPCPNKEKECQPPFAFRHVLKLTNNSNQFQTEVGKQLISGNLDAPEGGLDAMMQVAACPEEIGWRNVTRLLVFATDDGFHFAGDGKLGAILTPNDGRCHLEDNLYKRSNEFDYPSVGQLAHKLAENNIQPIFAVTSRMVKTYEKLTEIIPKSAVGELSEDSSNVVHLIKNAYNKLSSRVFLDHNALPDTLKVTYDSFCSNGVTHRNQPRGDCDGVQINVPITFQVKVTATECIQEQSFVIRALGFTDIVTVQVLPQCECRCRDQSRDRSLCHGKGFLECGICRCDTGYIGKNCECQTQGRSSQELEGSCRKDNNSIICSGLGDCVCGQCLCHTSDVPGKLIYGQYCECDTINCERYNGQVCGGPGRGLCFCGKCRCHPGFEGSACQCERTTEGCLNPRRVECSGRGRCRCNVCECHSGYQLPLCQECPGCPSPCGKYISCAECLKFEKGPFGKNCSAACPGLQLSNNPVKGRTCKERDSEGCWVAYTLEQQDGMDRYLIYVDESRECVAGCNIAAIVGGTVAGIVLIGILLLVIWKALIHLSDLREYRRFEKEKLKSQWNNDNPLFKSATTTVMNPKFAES

[3] = biological target: LFA-1 disulfide mutant #7 (αL M1064C / β2 P677C) on 293T cells (UniProt P20701); experiment: as above
LFA-1 disulfide mutant #7 (αL M1064C / β2 P677C) on 293T cells, sequence (P20701 26-1170 M1089C, chain 1 of 2): as the sequence (P20701 26-1170 K1087C, chain 1 of 2) above, with C1062K, M1064C counted along it
LFA-1 disulfide mutant #7 (αL M1064C / β2 P677C) on 293T cells, sequence (P05107 23-769 P699C, chain 2 of 2, further chain): as the sequence (P05107 23-769 P699C, chain 2 of 2, further chain) above

[4] = biological target: wild-type LFA-1 (αLβ2) on 293T cells (UniProt P20701); experiment: as above
[5] = biological target: LFA-1 disulfide mutant #9 (αL M1064C / β2 N678C) on 293T cells (UniProt P20701); experiment: as above
LFA-1 disulfide mutant #9 (αL M1064C / β2 N678C) on 293T cells, sequence (P20701 26-1170 M1089C, chain 1 of 2): as the sequence (P20701 26-1170 K1087C, chain 1 of 2) above, with C1062K, M1064C counted along it
LFA-1 disulfide mutant #9 (αL M1064C / β2 N678C) on 293T cells, sequence (P05107 23-769 N700C, chain 2 of 2, further chain): as the sequence (P05107 23-769 P699C, chain 2 of 2, further chain) above, with C677P, N678C counted along it

[6] = biological target: LFA-1 disulfide mutant #8 (αL Q1063C / β2 N678C) on 293T cells (UniProt P20701); experiment: as above
LFA-1 disulfide mutant #8 (αL Q1063C / β2 N678C) on 293T cells, sequence (P20701 26-1170 Q1088C, chain 1 of 2): as the sequence (P20701 26-1170 K1087C, chain 1 of 2) above, with C1062K, Q1063C counted along it
LFA-1 disulfide mutant #8 (αL Q1063C / β2 N678C) on 293T cells, sequence (P05107 23-769 N700C, chain 2 of 2, further chain): as the sequence (P05107 23-769 P699C, chain 2 of 2, further chain) above, with C677P, N678C counted along it

[7] = biological target: LFA-1 disulfide mutant #2 (αL E1061C / β2 G676C) on 293T cells (UniProt P20701); experiment: as above
LFA-1 disulfide mutant #2 (αL E1061C / β2 G676C) on 293T cells, sequence (P20701 26-1170 E1086C, chain 1 of 2): as the sequence (P20701 26-1170 K1087C, chain 1 of 2) above, with E1061C, C1062K counted along it
LFA-1 disulfide mutant #2 (αL E1061C / β2 G676C) on 293T cells, sequence (P05107 23-769 G698C, chain 2 of 2, further chain): as the sequence (P05107 23-769 P699C, chain 2 of 2, further chain) above, with G676C, C677P counted along it

[8] = biological target: LFA-1 disulfide mutant #4 (αL Q1063C / β2 G676C) on 293T cells (UniProt P20701); experiment: as above
LFA-1 disulfide mutant #4 (αL Q1063C / β2 G676C) on 293T cells, sequence (P20701 26-1170 Q1088C, chain 1 of 2): as the sequence (P20701 26-1170 K1087C, chain 1 of 2) above, with C1062K, Q1063C counted along it
LFA-1 disulfide mutant #4 (αL Q1063C / β2 G676C) on 293T cells, sequence (P05107 23-769 G698C, chain 2 of 2, further chain): as the sequence (P05107 23-769 P699C, chain 2 of 2, further chain) above, with G676C, C677P counted along it

[9] = biological target: LFA-1 disulfide mutant #3 (αL K1062C / β2 G676C) on 293T cells (UniProt P20701); experiment: as above
LFA-1 disulfide mutant #3 (αL K1062C / β2 G676C) on 293T cells, sequence (P20701 26-1170 K1087C, chain 1 of 2): as the sequence (P20701 26-1170 K1087C, chain 1 of 2) above
LFA-1 disulfide mutant #3 (αL K1062C / β2 G676C) on 293T cells, sequence (P05107 23-769 G698C, chain 2 of 2, further chain): as the sequence (P05107 23-769 P699C, chain 2 of 2, further chain) above, with G676C, C677P counted along it

[10] = biological target: LFA-1 disulfide mutant #6 (αL Q1063C / β2 P677C) on 293T cells (UniProt P20701); experiment: as above
LFA-1 disulfide mutant #6 (αL Q1063C / β2 P677C) on 293T cells, sequence (P20701 26-1170 Q1088C, chain 1 of 2): as the sequence (P20701 26-1170 K1087C, chain 1 of 2) above, with C1062K, Q1063C counted along it
LFA-1 disulfide mutant #6 (αL Q1063C / β2 P677C) on 293T cells, sequence (P05107 23-769 P699C, chain 2 of 2, further chain): as the sequence (P05107 23-769 P699C, chain 2 of 2, further chain) above

[11] = biological target: LFA-1 disulfide mutant #5 (αL K1062C / β2 P677C) on 293T cells (UniProt P20701); experiment: flow cytometry (FACS), LFA-1 on transfected 293T cells; reference wild-type LFA-1
[12] = biological target: LFA-1 disulfide mutant #7 (αL M1064C / β2 P677C) on 293T cells (UniProt P20701); experiment: as above
[13] = biological target: LFA-1 disulfide mutant #9 (αL M1064C / β2 N678C) on 293T cells (UniProt P20701); experiment: as above
[14] = biological target: LFA-1 disulfide mutant #8 (αL Q1063C / β2 N678C) on 293T cells (UniProt P20701); experiment: as above
[15] = biological target: LFA-1 disulfide mutant #2 (αL E1061C / β2 G676C) on 293T cells (UniProt P20701); experiment: as above
[16] = biological target: LFA-1 disulfide mutant #4 (αL Q1063C / β2 G676C) on 293T cells (UniProt P20701); experiment: as above
[17] = biological target: LFA-1 disulfide mutant #3 (αL K1062C / β2 G676C) on 293T cells (UniProt P20701); experiment: as above
[18] = biological target: LFA-1 disulfide mutant #6 (αL Q1063C / β2 P677C) on 293T cells (UniProt P20701); experiment: as above

wild-type LFA-1 (αLβ2) on 293T cells, sequence (P20701 26-1170 limits assumed, chain 1 of 2): as the sequence (P20701 26-1170 K1087C, chain 1 of 2) above, with C1062K counted along it
wild-type LFA-1 (αLβ2) on 293T cells, sequence (P05107 23-769 limits assumed, chain 2 of 2, further chain): as the sequence (P05107 23-769 P699C, chain 2 of 2, further chain) above, with C677P counted along it

Row | normalized mean relative to wild-type (WT is set to 1.0) [1] | Mean (FACS mean fluorescence) [2] | Mean value normalized with expression level (MHM24) [2] | Mean (FACS mean fluorescence) [3] | Mean value normalized with expression level (MHM24) [3] | Mean (FACS mean fluorescence) [4] | Mean value normalized with expression level (MHM24) [4] | Mean (FACS mean fluorescence) [5] | Mean value normalized with expression level (MHM24) [5] | Mean (FACS mean fluorescence) [6] | Mean (FACS mean fluorescence) [7] | Mean value normalized with expression level (MHM24) [7] | Mean (FACS mean fluorescence) [8] | Mean value normalized with expression level (MHM24) [8] | Mean (FACS mean fluorescence) [9] | Mean value normalized with expression level (MHM24) [9] | Mean (FACS mean fluorescence) [10] | Mean value normalized with expression level (MHM24) [10] | normalized mean relative to wild-type (WT is set to 1.0) [11] | normalized mean relative to wild-type (WT is set to 1.0) [12] | Substance | other results
1 | 1 | 10.3 and 9.36 | 0.036 and 0.04 | 10.8 and 11.8 | 0.033 and 0.053 | 12.2 and 13.9 | 0.035 and 0.055 | 10 and 12.1 | 0.023 and 0.047 | 8.54 and 12.2 | 8.27 and 9.59 | 0.016 and 0.044 | 12.1 and 12.2 | 0.06 and 0.074 | 11.1 and 15.8 | 0.039 and 0.093 | 10.9 and 14.4 | 0.037 and 0.08 | 1.03 and 0.73 | 0.95 and 0.96 | KIM127 (antibody) | normalized mean relative to wild-type (WT is set to 1.0) [13]: 0.66 and 0.85; normalized mean relative to wild-type (WT is set to 1.0) [14]: 0.61 and 1.49; normalized mean relative to wild-type (WT is set to 1.0) [15]: 0.46 and 0.81; normalized mean relative to wild-type (WT is set to 1.0) [16]: 1.69 and 1.35; normalized mean relative to wild-type (WT is set to 1.0) [17]: 1.12 and 1.69; normalized mean relative to wild-type (WT is set to 1.0) [18]: 1.06 and 1.47
2 |  | 102 |  | 126 |  |  |  | 147 |  | 88.5 | 97.4 |  | 95.9 |  | 117 |  | 117 |  |  |  | MHM24 (antibody) | 
3 |  |  |  |  |  | 5.96 |  | 4.06 |  |  |  |  |  |  |  |  |  |  |  |  | X63 (antibody) | 
4 | 1 | 43.5 | 0.39 | 53 | 0.39 | 66.3 | 0.39 | 57.1 | 0.36 | 38.6 | 35.8 | 0.33 | 47.8 | 0.46 | 57.4 | 0.46 | 52.3 | 0.42 | 0.99 | 0.99 | m24 (antibody) | Mean value normalized with expression level (MHM24) [6]: 0.4; normalized mean relative to wild-type (WT is set to 1.0) [13]: 0.92; normalized mean relative to wild-type (WT is set to 1.0) [14]: 1; normalized mean relative to wild-type (WT is set to 1.0) [15]: 0.83; normalized mean relative to wild-type (WT is set to 1.0) [16]: 1.18; normalized mean relative to wild-type (WT is set to 1.0) [17]: 1.17; normalized mean relative to wild-type (WT is set to 1.0) [18]: 1.06
